From US20250059274A1, “ANTI-FRa ANTIBODY, AND ANTIBODY-DRUG CONJUGATE AND USE THEREOF” (Bio-Thera Solutions, Ltd., priority 2021, published 2025)
Like-named read-outs stand apart in the source and are kept apart here. Blank lines part the entries; values can stand above or below the molecule they belong to.

Tests used:
Mouse FOLR1 = Mouse FOLR1 (Mus musculus, UniProt P35846); assay: ELISA species specificity of antibodies; format: binding; conditions: coated antigen mouse FOLR1
Method: (§1) Each antigen was diluted to 1 μg/mL with PBS and added to a microplate (manufacturer: Corning, Catalog No.: 42592) in a volume of 100 μL per well, and the microplate was coated overnight in a refrigerator (2-8° C.). The coating solution was discarded, and 200 μL of a blocking solution (containing 5% skimmed milk powder, prepared from PBS) was added. The microplate was left to stand in an electric thermostatic incubator at 37° C. for 2 h. The blocking solution was discarded, and the microplate was washed 3 times with 0.05% PBST. Antibody dilutions at different concentrations (at an initial concentration of 6 μg/mL, 3-fold dilution, 8 concentration gradients in total, diluted with PBS) were added at 100 μL per well. The microplate was left to stand in the electric thermostatic incubator at 37° C. for 2 h. The antibody dilutions were discarded, and the microplate was washed 8 times with 0.05% PBST and patted dry. Anti-Human Kappa Light Chains (Bound and Free) peroxidase antibody Produced in goat (manufacturer: sigma, Catalog No.: A7164-1ML) diluted in a 1:10000 ratio was added at 100 µL/well. The microplate was left to stand in the electric thermostatic incubator at 37° C. for 1 h. […] The microplate was read on SpectraMax Plus Absorbance Microplate Reader with an absorption light wavelength of 450 nm.

Rat FOLR1 = Rat FOLR1 (Rattus norvegicus, UniProt Q9JL02); assay: ELISA species specificity of antibodies; format: binding; conditions: coated antigen rat FOLR1
Method: as §1

[1] = Exatecan in plasma, 0.25 mg/kg iv infusion 30 min
Method: 24 common cynomolgus monkeys aged 3-5 years (half male and half female) were adopted and randomly divided into 4 groups, and each group consisted of 3 female animals and 3 male animals. […] Blood samples were collected until 504 hours after the end of the administration. The major pharmacokinetic parameters, i.e., AUC(0-t), AUC(0-∞), T1/2, Cmax, Tmax, CL, MRT, etc., were calculated from the plasma concentration data with a non-compartmental model using Phoenix WinNonlin® 7.0 software.

[2] = biological target: T1, folate receptor α (FRα) on FRα-positive cells (JEG-3, MCF-7) (UniProt P15328 25-234, limits assumed); assay: flow cytometry on JEG-3 cells
T1 construct: whole, on cells; also called JEG-3 cells; JEG3 cells

[3] = biological target: T2, FOLR3 (purchased from R&D, Catalog No. 5319-FR-050) (UniProt P41439 23-245, limits assumed); assay: SPR (Biacore T200), antibody captured on Protein A chip, antigen as analyte
T2 construct: Bought reagent; also called folate receptor γ
Method: (§2) A Protein A chip was used for the assay.
(§3) Experiment results were analyzed using data analysis software Evaluation Software 3.1. The sensing signals acquired from the experimental flow channels for the samples were subjected to double subtraction (minus values of reference flow channels and blank control), and the fitting was performed using a “1:1” kinetic model to obtain the kinetic parameters (Ka: association rate; Kd: dissociation rate; KD: equilibrium dissociation constant) for the binding of each sample to the antigens.

[4] = biological target: T3, FOLR2 (purchased from Acro, Catalog No. FO2-H5223) (UniProt P14207 17-228); assay: as above
T3 construct: Bought reagent; also called folate receptor β
Method: as §2, §3

[5] = biological target: T4, Rat FOLR1 (manufacturer: sino Biological, Catalog No.: 81073-R08NO0507) (rat, UniProt G3V8M6 25-232); assay: ELISA, antigen coated at 1 µg/mL
T4 construct: Bought reagent
Method: (§4) Each antigen was diluted to 1 μg/mL with PBS and added to a microplate (manufacturer: Corning, Catalog No.: 42592) in a volume of 100 μL per well, and the microplate was coated overnight in a refrigerator (2-8° C.). The coating solution was discarded, and 200 μL of a blocking solution (containing 5% skimmed milk powder, prepared from PBS) was added. The microplate was left to stand in an electric thermostatic incubator at 37° C. for 2 h. The blocking solution was discarded, and the microplate was washed 3 times with 0.05% PBST. Antibody dilutions at different concentrations (at an initial concentration of 6 μg/mL, 3-fold dilution, 8 concentration gradients in total, diluted with PBS) were added at 100 μL per well. The microplate was left to stand in the electric thermostatic incubator at 37° C. for 2 h. The antibody dilutions were discarded, and the microplate was washed 8 times with 0.05% PBST and patted dry. Anti-Human Kappa Light Chains (Bound and Free) peroxidase antibody Produced in goat (manufacturer: sigma, Catalog No.: A7164-1ML) diluted in a 1:10000 ratio was added at 100 µL/well. The microplate was left to stand in the electric thermostatic incubator at 37° C. for 1 h. The antibody dilutions were discarded, and the microplate was washed 8 times with 0.05% PBST and patted dry. Single-component TMB substrate solution I (manufacturer: Huzhou InnoReagents Co., Ltd.; Catalog No.: TMB-S-001) was added at 100 μL/well, and the microplate was left to stand in the electric thermostatic incubator at 37° C. for 10 min in the dark. 0.1 M H₂SO₄ was added at 100 μL/well to terminate the reaction.

[6] = biological target: T5, Mouse FOLR1 (manufacturer: Acro, Catalog No.: F01-M5225) (mouse, UniProt P35846 25-232); assay: ELISA, antigen coated at 1 µg/mL
T5 construct: Bought reagent
Method: as §4

[7] = biological target: T6, antigen FRα-His (human FRα extracellular domain with C-terminal 8×HIS tag) (human, UniProt P15328 25-233); assay: ELISA, antigen coated at 1 µg/mL, antibody titrated
T6 construct: The entry still carries the N-terminal signal peptide; Expressed in CHO-K1 cells; also called FOLR1
Method: as §4

[8] = biological target: T7, Cynomolgus monkey FOLR1 (manufacturer: Acro, Catalog No.: F01-C52H8) (cynomolgus monkey, UniProt A0A2K5U044 25-233); assay: as above
T7 construct: Bought reagent
Method: as §4

[9] = biological target: T6, antigen FRα-His (human FRα …); assay: SPR (Biacore T200), drug captured on Protein A chip, FRα-His as analyte, 1:1 model
Method: as §2, §3

[10] = biological target: T6, antigen FRα-His (human FRα …); assay: SPR (Biacore T200), antibody captured on Protein A chip, antigen as analyte, 1:1 model; Table 7 experiment (antigen specificity, FOLR1/FOLR2/FOLR3)
Method: as §2, §3

[11] = biological target: T6, antigen FRα-His (human FRα …); assay: SPR (Biacore T200), antibody captured on Protein A chip, antigen as analyte, 1:1 model
Method: as §2, §3

T6 sequence (P15328 other isoform, or with tags, fused parts or gaps limits assumed): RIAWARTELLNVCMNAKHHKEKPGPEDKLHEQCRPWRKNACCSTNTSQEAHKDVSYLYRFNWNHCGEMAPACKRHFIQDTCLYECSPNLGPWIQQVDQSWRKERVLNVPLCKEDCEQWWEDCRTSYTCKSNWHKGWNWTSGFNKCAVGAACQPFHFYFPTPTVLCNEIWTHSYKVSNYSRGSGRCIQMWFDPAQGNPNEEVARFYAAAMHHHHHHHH
T2 sequence (P41439 23-245 limits assumed): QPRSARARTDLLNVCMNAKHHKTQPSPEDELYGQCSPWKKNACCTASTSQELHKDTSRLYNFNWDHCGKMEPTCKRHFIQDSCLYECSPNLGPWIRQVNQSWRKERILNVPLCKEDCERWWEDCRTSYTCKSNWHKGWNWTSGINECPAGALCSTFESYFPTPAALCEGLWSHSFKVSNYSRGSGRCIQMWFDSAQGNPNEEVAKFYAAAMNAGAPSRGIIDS
T7 sequence (A0A2K5U044 entry or part of it): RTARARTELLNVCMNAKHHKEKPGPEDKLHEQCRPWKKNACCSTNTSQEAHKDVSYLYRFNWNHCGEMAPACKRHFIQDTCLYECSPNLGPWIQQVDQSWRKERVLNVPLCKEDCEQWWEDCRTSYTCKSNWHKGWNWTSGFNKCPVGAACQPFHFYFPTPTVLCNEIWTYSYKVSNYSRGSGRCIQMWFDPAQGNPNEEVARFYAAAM
T5 sequence (P35846 25-232 limits assumed): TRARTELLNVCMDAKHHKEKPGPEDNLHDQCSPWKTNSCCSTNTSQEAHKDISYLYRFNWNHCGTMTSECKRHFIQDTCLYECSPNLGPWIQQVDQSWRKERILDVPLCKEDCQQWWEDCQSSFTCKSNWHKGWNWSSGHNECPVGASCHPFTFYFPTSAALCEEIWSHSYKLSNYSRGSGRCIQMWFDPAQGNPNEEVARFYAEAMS
T3 sequence (P14207 17-228 limits assumed): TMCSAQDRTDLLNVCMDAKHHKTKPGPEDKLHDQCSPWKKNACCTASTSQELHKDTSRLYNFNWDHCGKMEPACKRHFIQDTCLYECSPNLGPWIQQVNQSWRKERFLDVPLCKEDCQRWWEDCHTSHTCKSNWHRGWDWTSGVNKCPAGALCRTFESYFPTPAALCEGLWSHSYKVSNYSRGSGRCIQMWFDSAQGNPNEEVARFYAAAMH
T4 sequence (G3V8M6 entry or part of it limits assumed): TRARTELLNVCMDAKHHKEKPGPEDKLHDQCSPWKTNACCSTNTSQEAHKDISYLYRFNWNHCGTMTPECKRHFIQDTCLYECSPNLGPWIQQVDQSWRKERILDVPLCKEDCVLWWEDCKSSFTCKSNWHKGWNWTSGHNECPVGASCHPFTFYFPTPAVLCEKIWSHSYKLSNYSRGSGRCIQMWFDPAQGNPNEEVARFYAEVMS
T1 sequence (P15328 25-234 limits assumed): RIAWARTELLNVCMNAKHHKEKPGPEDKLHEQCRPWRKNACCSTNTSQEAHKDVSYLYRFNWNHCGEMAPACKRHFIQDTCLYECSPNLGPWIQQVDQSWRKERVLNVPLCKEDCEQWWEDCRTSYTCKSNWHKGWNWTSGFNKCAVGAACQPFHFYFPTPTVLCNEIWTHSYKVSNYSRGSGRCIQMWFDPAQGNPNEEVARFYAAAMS
Sequence of Rat FOLR1 (Q9JL02 20-255): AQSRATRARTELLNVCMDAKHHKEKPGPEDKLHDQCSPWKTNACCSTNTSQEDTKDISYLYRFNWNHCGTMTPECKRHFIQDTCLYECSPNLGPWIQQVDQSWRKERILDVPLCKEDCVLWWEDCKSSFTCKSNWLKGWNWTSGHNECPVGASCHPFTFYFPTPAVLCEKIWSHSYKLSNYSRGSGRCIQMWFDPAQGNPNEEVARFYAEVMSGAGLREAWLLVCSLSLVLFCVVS
Sequence of Mouse FOLR1 (P35846 25-232): as the sequence (P35846 25-232 limits assumed) above

EC50 (Mouse FOLR1): — (“—” indicates no binding)
EC50 (Rat FOLR1): — (“—” indicates no binding)
Molecule: huMOV19: control antibody huMOV19, heavy chain SEQ ID NO: 34, light chain SEQ ID NO: 35

Molecule: (1S,9S)-1-amino-9-ethyl-5-fluoro-9-hydroxy-4-methyl-1,2,3,9,12,15-hexahydro-10H,13H-benzo[3′,4′:6,7]indoline[1,2-b]quinoline-10,13-dione methanesulfonate [Exatecan Mesylate]
AUC(0-t) ([1]; female): 155.05 ng·h/mL
Cmax ([1]; female): 237.567 ng/mL
Tmax ([1]; female): 30 min
AUC(0-t) ([1]; male): 231.77 ng·h/mL
Cmax ([1]; male): 349.808 ng/mL
Tmax ([1]; male): 30 min

EC50 [2]: 1.41 nM
EC50 [7]: 0.069 µg/mL
EC50 [8]: 0.066 µg/mL
Kd [9]: 0.287 nM
koff [9]: 0.000293 s⁻¹
kon [9]: 1.02e+06 M⁻¹ s⁻¹
Kd [10]: 0.703 nM
B1: Antibody 1 (humanized anti-FRα antibody) (antibody, human IgG1, kappa, V domains shown)
VH: QVQLVQSGVEVKKPGASVKVSCKASGYSFTGYFMNWVRQAPGQGLEWIGRIHPYDGDTFYNQNFKDKATLTVDKSTTTAYMELKSLQFDDTAVYYCTRYDGSRAMDYWGQGTTVTVSS
VL: EIVLTQSPATLSLSPGERATLSCKASQSVSFAGTSLMHWYQQKPGQAPRLLIYRASNLEAGVPARFSGSGSKTDFTLTISSLEPEDFAVYYCQQSREYPYTFGGGTKVEIKR
notes: also called anti-FRα antibody No. 1
binding result [3]: no binding (tested: antigen up to 100 nM)
binding result [4]: no binding (tested: antigen up to 100 nM)
binding result [5]: no binding (tested: antibody up to 6 µg/mL)
binding result [6]: no binding (tested: antibody up to 6 µg/mL)

EC50 [7]: 0.09 µg/mL
EC50 [8]: 0.087 µg/mL
Kd [11]: 0.468 nM
B2: control antibody huMOV19 (antibody, human IgG1, kappa, V domains shown)
VH: QVQLVQSGAEVVKPGASVKISCKASGYTFTGYFMNWVKQSPGQSLEWIGRIHPYDGDTFYNQKFQGKATLTVDKSSNTAHMELLSLTSEDFAVYYCTRYDGSRAMDYWGQGTTVTVSS
VL: DIVLTQSPLSLAVSLGQPAIISCKASQSVSFAGTSLMHWYHQKPGQQPRLLIYRASNLEAGVPDRFSGSGSKTDFTLTISPVEAEDAATYYCQQSREYPYTFGGGTKLEIKR
binding result [3]: no binding (tested: antigen up to 100 nM)
binding result [4]: no binding (tested: antigen up to 100 nM)
binding result [5]: no binding (tested: antibody up to 6 µg/mL)
binding result [6]: no binding (tested: antibody up to 6 µg/mL)
